This note sets out measurements from patent US20230257458A1 (SUNSHINE LAKE PHARMA, published 2023).

Test [1] deals with T1, recombinant IL-31 (Peprotech, 200-31) (UniProt Q6EBC2 24-164).
T1 sequence (looked up): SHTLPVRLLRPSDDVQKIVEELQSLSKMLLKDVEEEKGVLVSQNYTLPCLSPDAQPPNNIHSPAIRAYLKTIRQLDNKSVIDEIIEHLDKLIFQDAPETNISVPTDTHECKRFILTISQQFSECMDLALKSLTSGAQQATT
The experiment in a line: ELISA, cytokine coated. A general note: In an ELISA, binding on a coated surface is turned into a signal by an enzyme label.

Test [2] concerns the target T2, recombinant OSM (Genscript-z03132) (UniProt P13725 26-234, limits assumed).
T2 sequence (looked up): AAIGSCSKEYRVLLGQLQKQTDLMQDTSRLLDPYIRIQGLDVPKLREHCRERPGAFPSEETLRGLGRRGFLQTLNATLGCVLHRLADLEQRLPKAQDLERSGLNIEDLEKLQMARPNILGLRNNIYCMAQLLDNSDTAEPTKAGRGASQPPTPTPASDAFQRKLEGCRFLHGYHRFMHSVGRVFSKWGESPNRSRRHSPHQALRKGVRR
As to the kind of experiment: ELISA, cytokine coated.

For test [3], the target named is recombinant IL-6 (Sinobiological-10395-HNAE) (UniProt P05231 30-212). As to the kind of experiment: ELISA, cytokine coated.
The target of test [4] is T3, recombinant IL-11 (LSBio, LS-G132887-10) (UniProt P20809 22-199).
T3 construct: also called IL-11 cytokine
T3 sequence (looked up): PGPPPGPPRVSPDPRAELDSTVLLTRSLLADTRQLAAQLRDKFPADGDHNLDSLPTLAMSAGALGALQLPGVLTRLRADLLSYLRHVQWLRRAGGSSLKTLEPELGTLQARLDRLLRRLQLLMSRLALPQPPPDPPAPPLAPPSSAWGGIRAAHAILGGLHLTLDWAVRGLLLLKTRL
The experiment in a line: ELISA, cytokine coated.

Test [5] deals with T4, recombinant CLC (R&D systems, 962-CL-050) (UniProt Q9UBD9 28-225).
T4 sequence (looked up): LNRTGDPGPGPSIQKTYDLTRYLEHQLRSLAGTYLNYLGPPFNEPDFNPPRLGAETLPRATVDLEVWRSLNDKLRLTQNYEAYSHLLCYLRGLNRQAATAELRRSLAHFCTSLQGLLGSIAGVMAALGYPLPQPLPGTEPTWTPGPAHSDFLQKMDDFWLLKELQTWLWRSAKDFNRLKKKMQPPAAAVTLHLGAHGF
As to the kind of experiment: ELISA, cytokine coated.

For test [6], the target named is T5, recombinant CNTF (R&D systems, 257-NT-010) (UniProt P26441 2-200).
T5 sequence (looked up): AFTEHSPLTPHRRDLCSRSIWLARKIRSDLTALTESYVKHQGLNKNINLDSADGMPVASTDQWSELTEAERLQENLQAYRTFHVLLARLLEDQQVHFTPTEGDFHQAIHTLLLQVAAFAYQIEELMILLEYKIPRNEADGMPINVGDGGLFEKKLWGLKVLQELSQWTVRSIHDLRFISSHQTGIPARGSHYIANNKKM
The experiment in a line: ELISA, cytokine coated.

Test [7] concerns the target recombinant LIF (Peprotech, 300-05) (UniProt P15018 23-202). The experiment in a line: ELISA, cytokine coated.
Test [8] addresses T6, recombinant CT-1 (R&D systems, 612-CD-010) (UniProt Q16619 2-201, limits assumed).
T6 sequence (looked up): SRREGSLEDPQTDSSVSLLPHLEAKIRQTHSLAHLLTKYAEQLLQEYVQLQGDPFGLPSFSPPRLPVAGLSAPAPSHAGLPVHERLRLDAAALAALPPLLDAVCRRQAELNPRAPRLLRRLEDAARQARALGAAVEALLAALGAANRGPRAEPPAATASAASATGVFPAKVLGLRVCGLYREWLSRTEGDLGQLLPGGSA
The experiment in a line: ELISA, cytokine coated.

Test [9] concerns the target T7, recombinant IL-27 (R&D systems, 2526-IL-010) (UniProt Q8NEV9 29-243; Q14213 21-229).
T7 sequence (looked up) 1: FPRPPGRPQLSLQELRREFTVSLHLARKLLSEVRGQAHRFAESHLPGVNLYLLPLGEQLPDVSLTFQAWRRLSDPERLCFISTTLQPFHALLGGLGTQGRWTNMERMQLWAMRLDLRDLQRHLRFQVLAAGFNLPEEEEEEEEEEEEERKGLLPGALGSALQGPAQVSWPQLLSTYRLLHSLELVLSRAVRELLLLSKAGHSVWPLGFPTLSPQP
T7 sequence (looked up) 2: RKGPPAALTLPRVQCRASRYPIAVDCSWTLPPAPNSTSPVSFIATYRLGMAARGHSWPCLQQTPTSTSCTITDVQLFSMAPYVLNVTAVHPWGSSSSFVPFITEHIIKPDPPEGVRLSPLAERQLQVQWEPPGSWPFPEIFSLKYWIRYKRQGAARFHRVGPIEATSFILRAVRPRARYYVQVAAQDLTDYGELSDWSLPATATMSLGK
As to the kind of experiment: ELISA, cytokine coated.

For test [10], the target named is T8, recombinant human protein antigen hu-IL-11-His tag (human, UniProt P20809 22-199).
T8 construct: Expressed in CHO, Ni column and Superdex75; not shown: His tag
T8 sequence (looked up): T3 sequence (looked up)
The experiment in a line: BLI, IL-11 (His tag) on Ni-NTA sensor, antibody as analyte. The protocol:
Bio-Layer Interferometry (BLI) was used for binding affinity determination. […] The analytes were diluted in 7 concentration gradients, the binding time was 60 s and the dissociation time was 1000 s. The buffer was 20 mM PBS, 0.15M NaCl, 0.1% BSA, 0.05% Tween 20, pH 7.
In general terms: BLI is a label-free optical method that tracks binding on a fibre tip over time.

In test [11] the target is T5, recombinant CNTF (R&D systems, …). As to the kind of experiment: ELISA, cytokine coated. This is another data set of the same source.
The target of test [12] is T7, recombinant IL-27 (R&D systems, …). As to the kind of experiment: ELISA, cytokine coated. This is another data set of the same source.
The target in a further test is T9, IL-11-Fc protein (UniProt P20809 22-199, limits assumed).
T9 construct: also called IL-11 recombinant protein with Fc tag; not shown: Fc tag
T9 sequence (looked up): T3 sequence (looked up)
As to the kind of experiment: flow competition: IL-11-Fc + antibody dilutions on membrane-IL-11R CHO cells. On the procedure: Then the plate was incubated with 1.5*10\hat{ }5 membrane-IL-11R CHO cells (100 ul/well) for 1 h at room temperature. After incubation, the plate was centrifuged at 1500 rpm for 5 min, washed three times with PBS, and 1:400 diluted flow secondary antibody Goat-anti-Fc-FITC (Abcam, ab98529) was added with 200 ul/well. Then, the plate was incubated at 4° C. for 1 h, centrifuged at 1500 rpm for 5 min, washed three times with PBS, resuspended cells in 180 ul PBS, and detected by flow cytometry.

Sequence of recombinant LIF (Peprotech, 300-05) (P15018 23-202 limits assumed): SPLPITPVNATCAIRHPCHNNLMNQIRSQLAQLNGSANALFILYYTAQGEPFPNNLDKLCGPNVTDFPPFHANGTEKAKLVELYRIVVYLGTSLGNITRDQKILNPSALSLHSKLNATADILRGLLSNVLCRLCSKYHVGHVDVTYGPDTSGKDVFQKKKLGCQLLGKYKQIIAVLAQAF

B1: 5-20E11-5F2 (antibody, human IgG1, kappa, V domains shown)
VH: QVQLQQSGAELVRPGTSAKISCKASDYTFTNYWLGWLKQRPGHGLEWIGHIYPGGGYTNYNEKFKGKATLTADTSSSTAYMQLSSLTSEDSAVYFCARVRSGNDALDFWGQGTSVTVSS
VL: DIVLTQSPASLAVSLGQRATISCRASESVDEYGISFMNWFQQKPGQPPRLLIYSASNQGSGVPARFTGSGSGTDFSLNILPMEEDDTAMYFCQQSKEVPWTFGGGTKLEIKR
notes: also called 5-20E11-5F2 antibody; 5-20E11-5F2 mAb
Turning to B1, the OD450 nm amounted to 0.036 in test [1]; 0.045 in [2]; 0.049 in test [3]; 1.93 in test [4]; 0.033 in test [5]; 0.036 in [6]. The OD450 nm came out at 0.037 in [7], 0.034 in test [8] and 0.048 in test [9]. The dissociation constant (Kd) in test [10] stood at 0.069 nM. The koff in [10] stood at 1.21e-05 s⁻¹. Further, the on-rate constant (kon) in test [10] came out at 175000 M⁻¹ s⁻¹. The binding result in test [11] and in test [12] was “no binding” each time. Moreover, the EC50 in the test with IL-11-Fc protein amounted to 7.54 µg/mL.

What is called Kd is the concentration at which binding is half-saturated. The koff is the rate constant with which the complex falls apart. As a reminder, the kon is a measure of how fast the partners come together. A word on the EC50: it is the concentration giving half of the maximal effect.
